Results: article PMC12162372, “Imaging Cell Surface Plectin in PDAC Patients – A First-In-Human Phase 0 Study Report” (Molecular Imaging and Biology, 2025)
pKd: −log10 of the molar value. Ends that are not written are not given here.

Columns and labels:
[1] = human, in vivo
Method: (§1) Each patient received a single intravenous 100 µg bolus dose of PTP-01 labeled with 370 MBq ^111In. Whole-body planar scintigraphy was performed at 10 min post-injection, followed by scans at 1, 2, 3, 4, 20, and 50 h. SPECT/CT imaging was performed at 4, 20, and 50 h post-injection using a Siemens Symbia™ T6 dual-head SPECT/CT system with low-energy high-resolution (LEHR) collimators optimized for ^111In imaging. […] Quantitative analysis was conducted at the time using fused SPECT/CT images, and planar imaging remains available for biodistribution assessment. Tumor ROIs were initially defined using fused SPECT/CT images and cross-referenced with planar data for consistency. […] However, attenuation correction was not applied to the SPECT images, as full quantitative SPECT reconstruction was not supported by the scanner at the time. Quantitative analysis (%ID) was derived from planar scintigraphy data using calibration factors from a standard source (syringe) imaged under identical conditions. While SPECT/CT facilitated ROI placement, quantitative measurements were based on planar scintigraphy due to the absence of attenuation-corrected SPECT data. […]
Blood clearance parameters were calculated individually for each patient based on a biexponential fit to blood %ID/g data. […]

[2] = test system: CSP; conditions: input parameter applied to all patients in the Krogh cylinder model, no reference given, cited from earlier work
[3] = molecular target: T1, CSP in pancreatic tumors (Homo sapiens, UniProt Q15149); assay: Ex vivo planar scintigraphy of resected tumor and adjacent normal tissue; format: in vivo; design: from tissue; host or cells: pancreatic tumours of patients, imaged in vivo and as resected specimens
T1 sequence (Q15149 whole entry): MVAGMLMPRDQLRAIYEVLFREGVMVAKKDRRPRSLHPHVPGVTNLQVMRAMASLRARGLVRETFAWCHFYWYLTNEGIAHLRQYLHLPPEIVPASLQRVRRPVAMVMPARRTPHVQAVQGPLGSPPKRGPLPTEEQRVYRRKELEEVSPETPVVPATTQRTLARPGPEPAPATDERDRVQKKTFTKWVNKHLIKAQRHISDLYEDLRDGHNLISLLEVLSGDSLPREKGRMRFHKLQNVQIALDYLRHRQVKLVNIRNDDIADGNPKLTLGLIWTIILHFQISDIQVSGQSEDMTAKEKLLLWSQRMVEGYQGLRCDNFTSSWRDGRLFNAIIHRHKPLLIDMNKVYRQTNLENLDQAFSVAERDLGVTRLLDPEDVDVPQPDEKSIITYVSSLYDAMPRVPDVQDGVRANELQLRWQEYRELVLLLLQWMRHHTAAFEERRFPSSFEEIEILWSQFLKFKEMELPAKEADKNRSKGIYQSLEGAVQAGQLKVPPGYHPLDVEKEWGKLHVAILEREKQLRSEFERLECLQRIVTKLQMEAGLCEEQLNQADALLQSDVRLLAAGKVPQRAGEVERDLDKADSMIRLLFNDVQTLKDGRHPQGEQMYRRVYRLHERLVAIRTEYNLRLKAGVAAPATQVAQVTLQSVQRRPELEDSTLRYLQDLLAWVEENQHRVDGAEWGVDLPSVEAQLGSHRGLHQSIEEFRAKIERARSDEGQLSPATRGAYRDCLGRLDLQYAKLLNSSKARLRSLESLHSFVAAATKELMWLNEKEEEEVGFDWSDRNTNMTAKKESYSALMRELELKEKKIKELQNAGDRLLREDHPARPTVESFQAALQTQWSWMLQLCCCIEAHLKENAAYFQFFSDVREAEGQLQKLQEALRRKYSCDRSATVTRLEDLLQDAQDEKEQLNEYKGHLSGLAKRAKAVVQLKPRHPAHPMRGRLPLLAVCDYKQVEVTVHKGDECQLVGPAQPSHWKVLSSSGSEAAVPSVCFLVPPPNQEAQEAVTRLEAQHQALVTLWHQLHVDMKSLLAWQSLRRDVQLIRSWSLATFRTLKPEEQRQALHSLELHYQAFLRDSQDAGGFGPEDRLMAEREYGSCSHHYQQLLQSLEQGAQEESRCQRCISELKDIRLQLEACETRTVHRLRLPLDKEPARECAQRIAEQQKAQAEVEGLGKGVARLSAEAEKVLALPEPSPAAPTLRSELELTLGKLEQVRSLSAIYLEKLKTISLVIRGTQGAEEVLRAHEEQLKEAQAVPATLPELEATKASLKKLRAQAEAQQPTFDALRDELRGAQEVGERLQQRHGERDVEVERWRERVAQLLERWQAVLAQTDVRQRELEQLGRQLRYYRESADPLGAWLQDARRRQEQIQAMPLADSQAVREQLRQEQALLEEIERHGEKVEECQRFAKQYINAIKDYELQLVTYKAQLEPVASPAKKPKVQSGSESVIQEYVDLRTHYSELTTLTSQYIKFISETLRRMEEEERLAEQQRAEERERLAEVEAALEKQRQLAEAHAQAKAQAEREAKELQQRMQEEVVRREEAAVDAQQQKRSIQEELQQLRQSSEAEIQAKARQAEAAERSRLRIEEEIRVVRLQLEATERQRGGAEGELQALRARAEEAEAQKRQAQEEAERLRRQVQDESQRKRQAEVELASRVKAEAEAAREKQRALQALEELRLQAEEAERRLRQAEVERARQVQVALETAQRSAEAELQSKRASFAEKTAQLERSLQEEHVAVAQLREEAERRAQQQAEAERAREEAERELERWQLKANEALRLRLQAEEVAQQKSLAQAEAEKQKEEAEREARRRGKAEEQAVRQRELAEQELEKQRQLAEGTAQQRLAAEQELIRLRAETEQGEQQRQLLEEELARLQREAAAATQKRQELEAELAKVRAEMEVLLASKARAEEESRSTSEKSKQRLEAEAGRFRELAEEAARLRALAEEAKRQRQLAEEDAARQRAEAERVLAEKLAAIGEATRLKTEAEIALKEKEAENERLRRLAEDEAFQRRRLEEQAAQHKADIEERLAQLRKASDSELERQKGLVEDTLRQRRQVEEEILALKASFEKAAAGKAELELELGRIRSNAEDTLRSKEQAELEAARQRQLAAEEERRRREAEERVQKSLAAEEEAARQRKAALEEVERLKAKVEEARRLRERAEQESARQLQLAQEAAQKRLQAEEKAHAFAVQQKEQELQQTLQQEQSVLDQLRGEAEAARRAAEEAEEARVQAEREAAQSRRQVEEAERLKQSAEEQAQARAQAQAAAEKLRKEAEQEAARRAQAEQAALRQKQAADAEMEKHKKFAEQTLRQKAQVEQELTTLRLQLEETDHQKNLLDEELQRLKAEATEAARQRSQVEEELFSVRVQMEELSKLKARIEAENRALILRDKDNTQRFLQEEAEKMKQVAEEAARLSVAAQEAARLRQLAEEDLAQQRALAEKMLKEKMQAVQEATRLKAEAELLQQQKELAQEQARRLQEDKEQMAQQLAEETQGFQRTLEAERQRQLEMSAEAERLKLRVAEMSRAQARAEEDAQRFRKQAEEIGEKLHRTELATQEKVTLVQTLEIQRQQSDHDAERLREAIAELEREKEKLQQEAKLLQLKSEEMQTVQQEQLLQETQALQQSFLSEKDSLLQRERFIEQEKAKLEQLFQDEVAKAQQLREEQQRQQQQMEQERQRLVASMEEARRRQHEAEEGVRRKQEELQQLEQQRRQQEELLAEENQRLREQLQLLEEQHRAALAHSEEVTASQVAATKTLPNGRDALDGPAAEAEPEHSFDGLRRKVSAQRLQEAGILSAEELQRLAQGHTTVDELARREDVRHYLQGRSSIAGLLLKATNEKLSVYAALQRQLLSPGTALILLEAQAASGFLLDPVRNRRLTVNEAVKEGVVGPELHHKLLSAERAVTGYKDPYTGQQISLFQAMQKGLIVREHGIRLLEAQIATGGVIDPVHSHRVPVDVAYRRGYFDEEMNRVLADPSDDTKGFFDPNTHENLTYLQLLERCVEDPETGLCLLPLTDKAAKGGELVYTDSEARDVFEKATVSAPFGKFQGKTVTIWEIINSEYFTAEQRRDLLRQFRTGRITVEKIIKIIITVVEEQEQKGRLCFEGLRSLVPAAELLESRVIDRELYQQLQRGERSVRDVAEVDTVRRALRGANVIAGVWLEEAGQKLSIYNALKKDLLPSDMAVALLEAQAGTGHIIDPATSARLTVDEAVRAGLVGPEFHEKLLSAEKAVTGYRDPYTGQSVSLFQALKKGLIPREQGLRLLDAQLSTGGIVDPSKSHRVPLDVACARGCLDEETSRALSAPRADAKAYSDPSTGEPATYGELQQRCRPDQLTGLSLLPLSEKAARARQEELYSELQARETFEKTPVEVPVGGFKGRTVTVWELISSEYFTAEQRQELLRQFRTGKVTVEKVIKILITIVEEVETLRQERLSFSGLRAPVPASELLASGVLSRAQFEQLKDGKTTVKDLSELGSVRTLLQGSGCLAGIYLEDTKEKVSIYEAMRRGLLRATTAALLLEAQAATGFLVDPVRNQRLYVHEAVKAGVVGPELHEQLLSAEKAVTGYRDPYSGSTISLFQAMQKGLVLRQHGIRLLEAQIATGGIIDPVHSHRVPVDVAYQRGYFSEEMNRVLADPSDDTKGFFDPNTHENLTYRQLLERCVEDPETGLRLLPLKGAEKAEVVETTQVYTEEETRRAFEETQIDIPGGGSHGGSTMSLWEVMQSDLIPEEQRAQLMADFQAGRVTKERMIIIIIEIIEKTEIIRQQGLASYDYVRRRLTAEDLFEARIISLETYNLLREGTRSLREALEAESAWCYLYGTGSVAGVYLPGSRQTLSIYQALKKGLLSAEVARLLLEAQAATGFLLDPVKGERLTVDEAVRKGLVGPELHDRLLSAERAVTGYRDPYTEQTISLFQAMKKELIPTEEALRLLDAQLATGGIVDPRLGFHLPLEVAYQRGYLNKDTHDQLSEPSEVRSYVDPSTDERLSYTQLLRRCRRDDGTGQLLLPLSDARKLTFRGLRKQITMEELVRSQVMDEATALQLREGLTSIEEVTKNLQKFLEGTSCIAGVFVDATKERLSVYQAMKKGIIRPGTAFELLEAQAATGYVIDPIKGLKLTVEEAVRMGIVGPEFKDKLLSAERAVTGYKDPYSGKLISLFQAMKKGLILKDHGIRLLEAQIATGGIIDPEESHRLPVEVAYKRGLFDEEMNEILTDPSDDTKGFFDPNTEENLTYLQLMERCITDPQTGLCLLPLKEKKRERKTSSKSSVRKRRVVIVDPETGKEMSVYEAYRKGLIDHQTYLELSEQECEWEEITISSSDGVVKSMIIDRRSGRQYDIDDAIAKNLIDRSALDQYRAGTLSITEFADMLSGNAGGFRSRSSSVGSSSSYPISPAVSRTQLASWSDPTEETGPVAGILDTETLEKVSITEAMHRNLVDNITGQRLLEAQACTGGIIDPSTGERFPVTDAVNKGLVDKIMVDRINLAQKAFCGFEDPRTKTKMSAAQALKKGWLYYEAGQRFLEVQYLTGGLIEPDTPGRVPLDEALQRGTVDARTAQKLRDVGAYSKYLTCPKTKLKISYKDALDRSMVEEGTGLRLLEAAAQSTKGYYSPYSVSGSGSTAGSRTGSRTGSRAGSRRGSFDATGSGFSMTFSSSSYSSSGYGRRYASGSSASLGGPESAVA
Method: Following surgery, ex vivo planar images of the resected tumor and adjacent normal tissue (e.g., pancreas and duodenum) were obtained at 28 h post-injection. This timing aligns with surgical resection, allowing immediate imaging of fresh specimens. A white light image was collected for one patient to confirm tumor localization, but these images were not systematically obtained.
For ex vivo images, tumor ROIs were drawn using white light imaging, with the surrounding tissue considered background. […] The activity was calculated using planar data methods, ignoring the self-attenuation of the tissue because of tissue thickness.

[4] = molecular target: T1, CSP in pancreatic tumors; design: CSP, typically localized intracellularly in healthy cells, is aberrantly expressed on the surface of cancer cells; from tissue; host or cells: pancreatic tumours of patients, imaged in vivo and as resected specimens; conditions: in vivo, iv, 100 ug
Method: as §1
For in vivo images, we generated eight ROIs for each patient, including bladder, heart, left kidney, right kidney, liver, syringe, whole body, and tumor. […] Results were expressed as percent injected dose (%ID). […]

[5] = test system: CSP (plectin) in murine tumor models; conditions: preclinical SPECT imaging of murine tumor models; cited from earlier work
From the text: The CSP-targeting peptide KTLLPTP has been adapted for numerous applications as a targeting ligand for imaging agents. […] Tumor models with higher CSP levels also had correspondingly high tumor uptake of ^99mTc-KTLLPTP. Here we report the results of a phase 0 trial examining a tetrameric version of KTLLPTP labeled with ^111In called PTP-01 (NCT01962909) in patients with resectable p ...

Q: Which “blood concentrations, fold higher than in the other two patients” value [1] does the source give for “PTP-01: tetrameric version of KTLLPTP on a branched PEG linker, labeled with ^111In via DOTA; CSP-targeting imaging agent (also: tetramer on branched PEG linker, DOTA chelator labelled with 111In)” here?
A: Its value is 50-70 fold.

Q: And the “elimination half-life (T1/2)” value ([1]; iv)?
A: Its value is 5 to 22 h.

Q: What about the “Association rate constant (kon)” value [2] of the same substance?
A: The value was 100000 M⁻¹ s⁻¹.

Q: And the Internalization half-life [2]?
A: Its Internalization half-life is 13 h.

Q: And the Residualization half-life [2]?
A: The Residualization half-life was 120 h.

Q: And the pKd ([2]; read-out: Dissociation constant (KD))?
A: Its pKd is 7.05.

Q: And the tumor-to-background ratio ([3]; all three patients, confirmed by ex vivo planar scintigraphy)?
A: The tumor-to-background ratio was “exceeding 2”.

Q: What about the tumor-to-background ratio ([3]; ex vivo planar scintigraphy of resected specimens, 28 h post-injection, mean across patients) of the same substance?
A: The tumor-to-background ratio was 2.18 ± 0.14.

Q: What about the “average cumulative retention in tumor” value [4] of the same substance?
A: Its value is 8.90 ± 3.31 %ID.

Q: With ^99mTc-KTLLPTP as the substance, how does the “tumor accumulation, biodistribution and blood clearance” value [5] read?
A: Its value is “a tumor accumulation and favorable biodistribution in addition to fast blood clearance”.
